From IntAct's records for PubMed 9520446

B1: Inhibitor of nuclear factor kappa-B kinase subunit beta (Homo sapiens), O14920 (parent)
chain: MSWSPSLTTQTCGAWEMKERLGTGGFGNVIRWHNQETGEQIAIKQCRQELSPRNRERWCLEIQIMRRLTHPNVVAARDVPEGMQNLAPNDLPLLAMEYCQGGDLRKYLNQFENCCGLREGAILTLLSDIASALRYLHENRIIHRDLKPENIVLQQGEQRLIHKIIDLGYAKELDQGSLCTSFVGTLQYLAPELLEQQKYTVTVDYWSFGTLAFECITGFRPFLPNWQPVQWHSKVRQKSEVDIVVSEDLNGTVKFSSSLPYPNNLNSVLAERLEKWLQLMLMWHPRQRGTDPTYGPNGCFKALDDILNLKLVHILNMVTGTIHTYPVTEDESLQSLKARIQQDTGIPEEDQELLQEAGLALIPDKPATQCISDGKLNEGHTLDMDLVFLFDNSKITYETQISPRPQPESVSCILQEPKRNLAFFQLRKVWGQVWHSIQTLKEDCNRLQQGQRAAMMNLLRNNSCLSKMKNSMASMSQQLKAKLDFFKTSIQIDLEKYSEQTEFGITSDKLLLAWREMEQAVELCGRENEVKLLVERMMALQTDIVDLQRSPMGRKQGGTLDDLEEQARELYRRLREKPRDQRTEGDSQEMVRLLLQAIQSFEKKVRVIYTQLSKTVVCKQKALELLPKVEEVVSLMNEDEKTVVRLQEKRQKELWNLLKIACSKVRGPVSGSPDSMNASRLSQPGQLMSQPSTASNSLPEPAKKSEELVAEAHNLCTLLENAIQDTVREQDQSFTALDWSWLQTEEEEHSCLEQAS
B2: Inhibitor of nuclear factor kappa-B kinase subunit alpha (Homo sapiens), O15111 (parent)
chain: MERPPGLRPGAGGPWEMRERLGTGGFGNVCLYQHRELDLKIAIKSCRLELSTKNRERWCHEIQIMKKLNHANVVKACDVPEELNILIHDVPLLAMEYCSGGDLRKLLNKPENCCGLKESQILSLLSDIGSGIRYLHENKIIHRDLKPENIVLQDVGGKIIHKIIDLGYAKDVDQGSLCTSFVGTLQYLAPELFENKPYTATVDYWSFGTMVFECIAGYRPFLHHLQPFTWHEKIKKKDPKCIFACEEMSGEVRFSSHLPQPNSLCSLVVEPMENWLQLMLNWDPQQRGGPVDLTLKQPRCFVLMDHILNLKIVHILNMTSAKIISFLLPPDESLHSLQSRIERETGINTGSQELLSETGISLDPRKPASQCVLDGVRGCDSYMVYLFDKSKTVYEGPFASRSLSDCVNYIVQDSKIQLPIIQLRKVWAEAVHYVSGLKEDYSRLFQGQRAAMLSLLRYNANLTKMKNTLISASQQLKAKLEFFHKSIQLDLERYSEQMTYGISSEKMLKAWKEMEEKAIHYAEVGVIGYLEDQIMSLHAEIMELQKSPYGRRQGDLMESLEQRAIDLYKQLKHRPSDHSYSDSTEMVKIIVHTVQSQDRVLKELFGHLSKLLGCKQKIIDLLPKVEVALSNIKEADNTVMFMQGKRQKEIWHLLKIACTQSSARSLVGSSLEGAVTPQTSAWLPPTSAEHDHSLSCVVTPQDGETSAQMIEENLNCLGHLSTIIHEANEEQGNSMMNLDWSWLTE
B3: Mitogen-activated protein kinase kinase kinase 14 (Homo sapiens), Q99558 (parent)
chain: MAVMEMACPGAPGSAVGQQKELPKAKEKTPPLGKKQSSVYKLEAVEKSPVFCGKWEILNDVITKGTAKEGSEAGPAAISIIAQAECENSQEFSPTFSERIFIAGSKQYSQSESLDQIPNNVAHATEGKMARVCWKGKRRSKARKKRKKKSSKSLAHAGVALAKPLPRTPEQESCTIPVQEDESPLGAPYVRNTPQFTKPLKEPGLGQLCFKQLGEGLRPALPRSELHKLISPLQCLNHVWKLHHPQDGGPLPLPTHPFPYSRLPHPFPFHPLQPWKPHPLESFLGKLACVDSQKPLPDPHLSKLACVDSPKPLPGPHLEPSCLSRGAHEKFSVEEYLVHALQGSVSSGQAHSLTSLAKTWAARGSRSREPSPKTEDNEGVLLTEKLKPVDYEYREEVHWATHQLRLGRGSFGEVHRMEDKQTGFQCAVKKVRLEVFRAEELMACAGLTSPRIVPLYGAVREGPWVNIFMELLEGGSLGQLVKEQGCLPEDRALYYLGQALEGLEYLHSRRILHGDVKADNVLLSSDGSHAALCDFGHAVCLQPDGLGKSLLTGDYIPGTETHMAPEVVLGRSCDAKVDVWSSCCMMLHMLNGCHPWTQFFRGPLCLKIASEPPPVREIPPSCAPLTAQAIQEGLRKEPIHRVSAAELGGKVNRALQQVGGLKSPWRGEYKEPRHPPPNQANYHQTLHAQPRELSPRAPGPRPAEETTGRAPKLQPPLPPEPPEPNKSPPLTLSKEESGMWEPLPLSSLEPAPARNPSSPERKATVPEQELQQLEIELFLNSLSQPFSLEEQEQILSCLSIDSLSLSDDSEKNPSKASQSSRDTLSSGVHSWSSQAEARSSSWNMVLARGRPTDTPSYFNGVKVQIQSLNGEHLHIREFHRVKVGDIATGISSQIPAAAFSLVTKDGQPVRYDMEVPDSGIDLQCTLAPDGSFAWSWRVKHGQLENRP
partner: B1 chain
B4: Mitogen-activated protein kinase kinase kinase 14 (Homo sapiens), Q99558 (parent)
chain: B3 chain
partner: B2 chain

Variants of: B1
Settings: with ikba_human NFKBIA
For K44A, the “effect of a mutation on the interaction” value was “decreasing interaction”.

Variants of: B2
Settings: with ikba_human NFKBIA
With S176E the “effect of a mutation on the interaction” value was “increasing interaction”.

Variants of: B2
Settings: with ikba_human NFKBIA
Remark: another data set of the same source
S176A was tested, and the “effect of a mutation on the interaction” value was “decreasing interaction”.
In the case of K44A, the “effect of a mutation on the interaction” value is reported as “disrupting interaction”.

Variants of: B2
Settings: with MAP3K14, Q99558
For S176A, the “effect of a mutation on the interaction” value was “decreasing interaction”.

Variants of: B3
Settings: with ikkb_human IKBKB
For K429A;K430A, the “effect of a mutation on the interaction” value was “disrupting interaction”.

Variants of: B4
Settings: with ikka_human CHUK, O15111
For K429A;K430A, the “effect of a mutation on the interaction” value was “disrupting interaction”.
